Target: T1, IL-1β (UniProt P01584 117-269)
T1 construct: Antigen of XPA23
Experiment: Biacore, Fab periplasmic extract

| fold difference in affinity against the original | Binder |
| --- | --- |
| 1.41 fold | XPA23 heavy chain S105P (Fab, V domains shown, Fab, periplasmic extract; also called C5A S105P) VH: EVQLLESGGGLVQPGGSLRLSCAASGFTFSKYFMFWVRQAPGKGLEWVSVISPSGGMTRYADSVKGRFTISRDNSKNTLYLQMNSLRAEDTAVYYCARVGYGGNPDYWGQGTLVTVSS VL: DIQMTQSPSSVSASVGDRLTIICRASQDINRWLAWYQQTPGNAPKLLIHSATSLQSGVPSRFSGSGSGTDFTLTINSLQPEDFATYYCQQADSFPLTFGGGTKVEIK |
| 0.08 fold | XPA23 heavy chain S105V (Fab, V domains shown, Fab, periplasmic extract; also called C5A S105V) VH: EVQLLESGGGLVQPGGSLRLSCAASGFTFSKYFMFWVRQAPGKGLEWVSVISPSGGMTRYADSVKGRFTISRDNSKNTLYLQMNSLRAEDTAVYYCARVGYGGNVDYWGQGTLVTVSS VL: DIQMTQSPSSVSASVGDRLTIICRASQDINRWLAWYQQTPGNAPKLLIHSATSLQSGVPSRFSGSGSGTDFTLTINSLQPEDFATYYCQQADSFPLTFGGGTKVEIK |
| 0.95 fold | XPA23 heavy chain T58G (Fab, V domains shown, Fab, periplasmic extract; also called C5A T58G) VH: EVQLLESGGGLVQPGGSLRLSCAASGFTFSKYFMFWVRQAPGKGLEWVSVISPSGGMGRYADSVKGRFTISRDNSKNTLYLQMNSLRAEDTAVYYCARVGYGGNSDYWGQGTLVTVSS VL: DIQMTQSPSSVSASVGDRLTIICRASQDINRWLAWYQQTPGNAPKLLIHSATSLQSGVPSRFSGSGSGTDFTLTINSLQPEDFATYYCQQADSFPLTFGGGTKVEIK |
| 0.14 fold | XPA23 heavy chain T58A (Fab, V domains shown, Fab, periplasmic extract; also called C5A T58A) VH: EVQLLESGGGLVQPGGSLRLSCAASGFTFSKYFMFWVRQAPGKGLEWVSVISPSGGMARYADSVKGRFTISRDNSKNTLYLQMNSLRAEDTAVYYCARVGYGGNSDYWGQGTLVTVSS VL: DIQMTQSPSSVSASVGDRLTIICRASQDINRWLAWYQQTPGNAPKLLIHSATSLQSGVPSRFSGSGSGTDFTLTINSLQPEDFATYYCQQADSFPLTFGGGTKVEIK |

Second part, the binder before the results:

| Binder | fold difference in affinity against the original |
| --- | --- |
| XPA23 heavy chain T58P (Fab, V domains shown, Fab, periplasmic extract; also called C5A T58P) VH: EVQLLESGGGLVQPGGSLRLSCAASGFTFSKYFMFWVRQAPGKGLEWVSVISPSGGMPRYADSVKGRFTISRDNSKNTLYLQMNSLRAEDTAVYYCARVGYGGNSDYWGQGTLVTVSS VL: DIQMTQSPSSVSASVGDRLTIICRASQDINRWLAWYQQTPGNAPKLLIHSATSLQSGVPSRFSGSGSGTDFTLTINSLQPEDFATYYCQQADSFPLTFGGGTKVEIK | 1.81 fold |
| XPA23 heavy chain S105T (Fab, V domains shown, Fab, periplasmic extract; also called C5A S105T) VH: EVQLLESGGGLVQPGGSLRLSCAASGFTFSKYFMFWVRQAPGKGLEWVSVISPSGGMTRYADSVKGRFTISRDNSKNTLYLQMNSLRAEDTAVYYCARVGYGGNTDYWGQGTLVTVSS VL: DIQMTQSPSSVSASVGDRLTIICRASQDINRWLAWYQQTPGNAPKLLIHSATSLQSGVPSRFSGSGSGTDFTLTINSLQPEDFATYYCQQADSFPLTFGGGTKVEIK | 0.11 fold |
| XPA23 heavy chain T58L (Fab, V domains shown, Fab, periplasmic extract; also called C5A T58L) VH: EVQLLESGGGLVQPGGSLRLSCAASGFTFSKYFMFWVRQAPGKGLEWVSVISPSGGMLRYADSVKGRFTISRDNSKNTLYLQMNSLRAEDTAVYYCARVGYGGNSDYWGQGTLVTVSS VL: DIQMTQSPSSVSASVGDRLTIICRASQDINRWLAWYQQTPGNAPKLLIHSATSLQSGVPSRFSGSGSGTDFTLTINSLQPEDFATYYCQQADSFPLTFGGGTKVEIK | 0.95 fold |
| XPA23 heavy chain T58I (Fab, V domains shown, Fab, periplasmic extract; also called C5A T58I) VH: EVQLLESGGGLVQPGGSLRLSCAASGFTFSKYFMFWVRQAPGKGLEWVSVISPSGGMIRYADSVKGRFTISRDNSKNTLYLQMNSLRAEDTAVYYCARVGYGGNSDYWGQGTLVTVSS VL: DIQMTQSPSSVSASVGDRLTIICRASQDINRWLAWYQQTPGNAPKLLIHSATSLQSGVPSRFSGSGSGTDFTLTINSLQPEDFATYYCQQADSFPLTFGGGTKVEIK | 0.95 fold |

From patent US20110118131A1 (published 2011)
